Like-named read-outs stand apart in the source and are kept apart here.
B1: mCpG 20 bp duplex (m/m) (dsDNA)
DNA 1: TCTGGAACGGAATTCTTCTA
DNA 2: TAGAAGAATTCCGTTCCAGA
modifications: 5mC at CpG C of both strands (strand 1 C8, strand 2 C12)
B2: CpG 20 bp duplex (-/-) (dsDNA)
DNA 1: TCTGGAACGGAATTCTTCTA
DNA 2: TAGAAGAATTCCGTTCCAGA
modifications: none

Assays:
Assay in all cases: fluorescence anisotropy
[1] = target: T1, MeCP2 (full-length) (human, UniProt P51608 1-486)
[2] = target: T1, MeCP2 (full-length); remark: listed apart in the source
[3] = target: T1, MeCP2 (full-length); remark: listed apart in the source
[4] = target: T1, MeCP2 (full-length); remark: listed apart in the source
[5] = target: T1, MeCP2 (full-length); remark: listed apart in the source
[6] = target: T1, MeCP2 (full-length); remark: listed apart in the source
[7] = target: T1, MeCP2 (full-length); remark: listed apart in the source

T1 sequence (P51608 whole entry): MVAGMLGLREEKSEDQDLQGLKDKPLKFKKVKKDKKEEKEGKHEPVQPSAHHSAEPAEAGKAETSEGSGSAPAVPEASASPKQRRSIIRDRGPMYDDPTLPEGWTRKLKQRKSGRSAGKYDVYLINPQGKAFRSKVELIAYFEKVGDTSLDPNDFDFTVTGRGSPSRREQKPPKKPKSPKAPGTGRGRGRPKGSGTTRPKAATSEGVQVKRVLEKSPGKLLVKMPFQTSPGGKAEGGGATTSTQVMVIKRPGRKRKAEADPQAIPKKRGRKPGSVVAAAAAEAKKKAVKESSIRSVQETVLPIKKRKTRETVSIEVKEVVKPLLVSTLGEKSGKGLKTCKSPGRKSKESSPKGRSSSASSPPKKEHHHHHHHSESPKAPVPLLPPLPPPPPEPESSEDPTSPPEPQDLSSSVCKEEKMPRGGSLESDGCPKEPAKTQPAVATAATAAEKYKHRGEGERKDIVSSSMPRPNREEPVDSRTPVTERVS

Row | Binder | Kd [1] [nM] | Kd [2] [nM] | Kd [3] [nM] | Kd [4] [nM] | Kd [5] [nM] | Kd [6] [nM] | Kd [7] [nM]
1 | B1 | 5.2 ± 0.4 | 36.5 ± 1.4 | 80.3 ± 2.5 | 28.3 ± 1.1 | – | – | –
2 | B2 | – | – | – | – | 6.3 ± 0.3 | 56.5 ± 1.8 | 155 ± 3.7
